The values that follow come from PMC12435897.

Common to all, as to design: EC50 of β-arrestin-1 recruitment to the receptor (NanoBiT, HEK293T, agonist mode) (M (inferred, not given)) / EC50 of β-arrestin-1 recruitment to CCR3 (NanoBiT, HEK293T, agonist mode) (M (inferred, not given)) / EC50 of β-arrestin-1 recruitment to CCR5 (NanoBiT, HEK293T, agonist mode) (M (inferred, not given)): unit not given beside the values
Assay [1] concerns the target WT CCR5 C-terminally fused to SmBiT (human) (UniProt P51681).
The target of assay [2] is T1, human CCR10 on Ready-to-Assay Chem-1 cells (human) (UniProt P46092).
T1 sequence: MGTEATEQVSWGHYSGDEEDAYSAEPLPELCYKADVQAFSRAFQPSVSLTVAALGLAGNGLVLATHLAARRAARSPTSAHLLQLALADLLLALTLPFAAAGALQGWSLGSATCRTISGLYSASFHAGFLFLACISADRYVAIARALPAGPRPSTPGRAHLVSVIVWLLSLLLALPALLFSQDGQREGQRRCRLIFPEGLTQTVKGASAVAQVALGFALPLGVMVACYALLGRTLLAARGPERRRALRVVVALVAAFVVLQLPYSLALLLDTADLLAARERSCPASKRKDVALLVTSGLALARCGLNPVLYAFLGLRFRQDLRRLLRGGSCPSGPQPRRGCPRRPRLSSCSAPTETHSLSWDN

For assay [3], the target named is T2, human CCR3 on Ready-to-Assay Chem-1 cells (human) (UniProt P51677).
T2 sequence: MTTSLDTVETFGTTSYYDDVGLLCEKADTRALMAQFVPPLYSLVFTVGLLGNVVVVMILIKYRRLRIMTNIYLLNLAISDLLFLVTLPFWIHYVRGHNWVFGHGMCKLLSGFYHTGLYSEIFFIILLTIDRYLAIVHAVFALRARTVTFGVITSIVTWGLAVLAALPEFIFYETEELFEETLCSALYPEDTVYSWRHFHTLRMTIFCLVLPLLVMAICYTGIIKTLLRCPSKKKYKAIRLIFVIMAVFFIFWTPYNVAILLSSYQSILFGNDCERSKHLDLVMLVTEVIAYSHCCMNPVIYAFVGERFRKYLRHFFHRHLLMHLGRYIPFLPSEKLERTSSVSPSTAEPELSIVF

Assay [4] has as its target WT CXCR4 C-terminally fused to SmBiT (human) (UniProt P61073).
Assay [5] has as its target T3, WT CCR3 C-terminally fused to SmBiT (human) (UniProt P51677).
T3 sequence: T2 sequence

“CCL3 (from UniProt P10147 24-92) (ligand; in M (unit assumed))” displayed an EC50 of β-arrestin-1 recruitment to the receptor (NanoBiT, HEK293T, agonist mode) (M (inferred, not given)) in assay [1] of 4.12e-08.
Same read-out and setting: for “CCL4 (from UniProt P13236 24-92) (ligand; in M (unit assumed))” the value was 1.45e-07.
On to “CCL5 (from UniProt P13501 24-91) (ligand)”, for which the β-arrestin-1 recruitment to the receptor (NanoBiT, HEK293T, agonist mode): mean peak activity, no single EC50 (fold untreated) in assay [1] amounted to 16.5.
Regarding CCL28 ∆1 (∆S) (ligand), the EC50 of calcium flux in Chem-1 cells expressing the receptor (row labelled WT CCR3 in the sheet, taken as CCR10) in assay [2] was determined as 170 nM.
With “CCL28 ∆1 (∆S) (ligand; in M (unit assumed))”, in assay [3], the EC50 of calcium flux in Chem-1 cells expressing the receptor (M (inferred, not given)) amounted to 1.72e-07.
For the molecule CCL28 ∆2 (∆SE) (ligand), the EC50 of calcium flux in Chem-1 cells expressing the receptor (row labelled WT CCR3 in the sheet, taken as CCR10) in assay [2] was 29 nM.
For the molecule “CCL28 ∆2 (∆SE) (ligand; in M (unit assumed))”, the EC50 of calcium flux in Chem-1 cells expressing the receptor (M (inferred, not given)) in assay [3] is 5.46e-08.
Consider CCL28 ∆3 (∆SEA) (ligand), for which the EC50 of calcium flux in Chem-1 cells expressing the receptor (row labelled WT CCR3 in the sheet, taken as CCR10) in assay [2] came out at 32 nM.
As to “CCL28 ∆3 (∆SEA) (ligand; in M (unit assumed))”, in assay [3], the EC50 of calcium flux in Chem-1 cells expressing the receptor (M (inferred, not given)) was 5.22e-08.
Regarding CCL28 ∆4 (∆SEAI) (ligand), the EC50 of calcium flux in Chem-1 cells expressing the receptor (row labelled WT CCR3 in the sheet, taken as CCR10) in assay [2] amounted to 390 nM.
Take “CCL28 ∆4 (∆SEAI) (ligand; in M (unit assumed))”: the EC50 of calcium flux in Chem-1 cells expressing the receptor (M (inferred, not given)) in assay [3] worked out at 2.79e-08.
Molecule “CXCL12 (from UniProt P48061 22-93) (ligand)” displayed an EC50 of β-arrestin-1 recruitment to the receptor (NanoBiT, HEK293T, agonist mode) in assay [4] of 1.41 nM.
In turn, vMIP-II K10T (ligand) showed an EC50 of β-arrestin-1 recruitment to CCR3 (NanoBiT, HEK293T, agonist mode) (M (inferred, not given)) in assay [5] of 5.84e-10.
Turning to vMIP-II L13F (ligand), the EC50 of β-arrestin-1 recruitment to CCR3 (NanoBiT, HEK293T, agonist mode) (M (inferred, not given)) in assay [5] is 5.34e-10.
Regarding vMIP-II R7I (ligand), in assay [5], the EC50 of β-arrestin-1 recruitment to CCR3 (NanoBiT, HEK293T, agonist mode) (M (inferred, not given)) was 3.79e-10.
Regarding vMIP-II R7I/K10T/L13F (ligand), the EC50 of β-arrestin-1 recruitment to CCR5 (NanoBiT, HEK293T, agonist mode) (M (inferred, not given)) in assay [1] was 1.08e-07. In assay [5], the EC50 of β-arrestin-1 recruitment to CCR3 (NanoBiT, HEK293T, agonist mode) (M (inferred, not given)) was found to be 1.11e-09.

B1: WT CCL28 (ligand)
chain: SEAILPIASSCCTEVSHHISRRLLERVNMCRIQRADGDCDLAAVILHVKRRRICVSPHNHTVKQWMKVQAAKKNGKGNVCHRKKHHGKRNSNRAHQGKHETYGHKTPY
On to B1, for which the EC50 of calcium flux in Chem-1 cells expressing the receptor (row labelled WT CCR3 in the sheet, taken as CCR10) in assay [2] was 230 nM. The EC50 of calcium flux in Chem-1 cells expressing the receptor (M (inferred, not given)) in assay [3] came out at 1.42e-07.

B2: viral macrophage inflammatory protein II (vMIP-II) (ligand)
chain: GDTLGASWHRPDKCCLGYQKRPLPQVLLSSWYPTSQLCSKPGVIFLTKRGRQVCADKSKDWVKKLMQQLPVTAR
B2 yielded an EC50 of β-arrestin-1 recruitment to CCR3 (NanoBiT, HEK293T, agonist mode) (M (inferred, not given)) in assay [5] of 1.35e-09.
